Test system: mouse collagen-induced arthritis model
Test: Mouse collagen-induced arthritis model
Assay type: in vivo
Conditions: day 42; 2 mg/mL, 200 μL per mouse intraperitoneally; compared to saline administrated group
Procedure: The mouse collagen-induced arthritis model was prepared in the following manner according to the method of Kamada et al., (Kamada H. et al., Jpn. J. Pharmacol., 70, 169-175, 1996) using DBA/1J mice (male, 7 weeks old, Japan Charles River).
A bovine cartilage-derived type II collagen solution (manufactured by Collagen Gijutsu Kenshu) was mixed with a Freund's complete adjuvant (manufactured by Iatron) under ice cooling to form an emulsion which was adjusted such that the final concentration of the type II collagen became 1.5 mg/mL. The emulsion was intradermally injected in amount of 100 μL at the base of the tail of the mouse for sensitization. Twenty-one days later, the additional immunization was performed in the same manner. One group consisted of 10 mice. Anti-FGF-8 neutralizing antibody KM1334 was dissolved in a saline (manufactured by Otsuka Seiyaku Kojo) to a final concentration of 2 mg/mL, and the solution was intraperitoneally administered to a KM1334 administrated group at a dose of 200 μL for each mouse once a day on days 21, 25, 28, 32, 35 and 39 from the initial sensitization of the mouse collagen-induced arthritis model. […] The change with time of edemas of all limbs in collagen-induced arthritis was evaluated by the scoring from 0 to 4 in each limb to a total of 16 at the maximum score in all limbs. […]

B1: KM1334: anti-FGF-8 neutralizing monoclonal antibody produced by hybridoma KM1334 (FERM BP-5451), mouse IgG1 subclass (antibody, V domains shown)
VH: QVQLQQSGAEVARPGASVKLSCKASGYTFTDYYLNWVKQRSGQGLEWIGEIDPGSDSIYYNENLEGRATLTADKSSSTAYMQLNSLTSEDSAVYFCARYGYSRYDVRFVYWGQGTLVTVST
VL: DVLMTQTPLSLPVSLGDQASISCRSSQSLVHSNGRTYLEWYLQKPGQSPKVLIYKVSNRISGVPDRFSGSGSGTDFTLKISRVEAEDLGVYFCFQGSHVPYTFGGGTKLEIK
inhibition of the arthritic score: 34%

Reference: US7708999B2, “Remedies for arthritis” (Kyowa Hakko Kirin Co., Ltd., priority 2001, dated 2010)
